B1: GpH7-B3 variant E269_14T/GpL16-k0 (antibody, human IgG1, kappa)
heavy: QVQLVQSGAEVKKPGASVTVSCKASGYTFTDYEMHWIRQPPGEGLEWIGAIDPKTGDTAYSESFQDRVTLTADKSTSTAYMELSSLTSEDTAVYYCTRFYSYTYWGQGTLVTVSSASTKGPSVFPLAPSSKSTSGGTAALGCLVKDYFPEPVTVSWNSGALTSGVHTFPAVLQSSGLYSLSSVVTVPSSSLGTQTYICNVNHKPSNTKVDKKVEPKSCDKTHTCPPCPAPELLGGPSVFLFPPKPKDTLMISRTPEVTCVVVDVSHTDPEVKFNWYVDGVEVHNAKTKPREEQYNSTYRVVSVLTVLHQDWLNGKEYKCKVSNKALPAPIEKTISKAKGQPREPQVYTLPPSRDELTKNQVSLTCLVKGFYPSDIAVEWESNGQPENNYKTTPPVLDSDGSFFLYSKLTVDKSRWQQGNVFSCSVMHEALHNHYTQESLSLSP
light: DIVMTQSPLSLPVTPGEPASISCQASESLVHSNRNTYLHWYLQKPGQSPQLLIYKVSNRFSGVPDRFSGSGSGTDFTLKISRVEAEDVGVYYCSQNTHVPPTFGQGTKVEIERTVAAPSVFIFPPSDEQLKSGTASVVCLLNNFYPREAKVQWKVDNALQSGNSQESVTEQDSKDSTYSLSSTLTLSKADYEKHKVYACEVTHQGLSSPVTKSFNRGEC
notes: also called Ho Ab E269_14T
B2: GpH7-B3 variant E333_05P/GpL16-k0 (antibody, human IgG1, kappa)
heavy: not shown
light: B1 light
notes: also called Ho Ab E333_05P
B3: GpH7-B3 variant E333_04F/GpL16-k0 (antibody, human IgG1, kappa)
heavy: not shown
light: B1 light
notes: also called Ho Ab E333_04F
B4: GpH7-B3 variant E333_16H/GpL16-k0 (antibody, human IgG1, kappa)
heavy: not shown
light: B1 light
notes: also called Ho Ab E333_16H
B5: GpH7-B3 variant E333_11K/GpL16-k0 (antibody, human IgG1, kappa)
heavy: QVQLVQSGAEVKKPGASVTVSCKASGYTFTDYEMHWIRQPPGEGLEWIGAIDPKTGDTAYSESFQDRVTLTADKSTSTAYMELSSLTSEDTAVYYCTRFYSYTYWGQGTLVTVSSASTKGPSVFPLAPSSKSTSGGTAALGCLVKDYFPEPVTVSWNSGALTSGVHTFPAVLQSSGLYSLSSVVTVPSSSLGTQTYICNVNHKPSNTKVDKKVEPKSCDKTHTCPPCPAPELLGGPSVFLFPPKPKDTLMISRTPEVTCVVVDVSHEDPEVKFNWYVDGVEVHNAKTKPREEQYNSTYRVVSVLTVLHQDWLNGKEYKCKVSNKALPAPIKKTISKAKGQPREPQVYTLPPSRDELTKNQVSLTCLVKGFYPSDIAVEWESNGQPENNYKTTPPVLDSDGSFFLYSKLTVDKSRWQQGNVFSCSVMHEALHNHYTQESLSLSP
light: B1 light
notes: also called Ho Ab E333_11K
B6: GpH7-B3 variant E333_02A/GpL16-k0 (antibody, human IgG1, kappa)
heavy: not shown
light: B1 light
notes: also called Ho Ab E333_02A
B7: GpH7-B3 variant E333_06M/GpL16-k0 (antibody, human IgG1, kappa)
heavy: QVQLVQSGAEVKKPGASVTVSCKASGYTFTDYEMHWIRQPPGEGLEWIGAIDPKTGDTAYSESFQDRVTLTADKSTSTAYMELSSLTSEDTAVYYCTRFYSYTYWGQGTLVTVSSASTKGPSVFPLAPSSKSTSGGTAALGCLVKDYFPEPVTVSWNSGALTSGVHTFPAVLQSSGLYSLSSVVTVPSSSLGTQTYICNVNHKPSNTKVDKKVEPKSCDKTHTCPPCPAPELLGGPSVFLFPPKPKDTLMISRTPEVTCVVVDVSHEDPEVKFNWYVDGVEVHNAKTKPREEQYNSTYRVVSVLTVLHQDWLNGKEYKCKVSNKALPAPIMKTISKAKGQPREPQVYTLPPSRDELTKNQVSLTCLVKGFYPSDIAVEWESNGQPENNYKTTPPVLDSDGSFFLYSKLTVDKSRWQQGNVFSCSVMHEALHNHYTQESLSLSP
light: B1 light
notes: also called Ho Ab E333_06M
B8: GpH7-B3 variant E333_14T/GpL16-k0 (antibody, human IgG1, kappa)
heavy: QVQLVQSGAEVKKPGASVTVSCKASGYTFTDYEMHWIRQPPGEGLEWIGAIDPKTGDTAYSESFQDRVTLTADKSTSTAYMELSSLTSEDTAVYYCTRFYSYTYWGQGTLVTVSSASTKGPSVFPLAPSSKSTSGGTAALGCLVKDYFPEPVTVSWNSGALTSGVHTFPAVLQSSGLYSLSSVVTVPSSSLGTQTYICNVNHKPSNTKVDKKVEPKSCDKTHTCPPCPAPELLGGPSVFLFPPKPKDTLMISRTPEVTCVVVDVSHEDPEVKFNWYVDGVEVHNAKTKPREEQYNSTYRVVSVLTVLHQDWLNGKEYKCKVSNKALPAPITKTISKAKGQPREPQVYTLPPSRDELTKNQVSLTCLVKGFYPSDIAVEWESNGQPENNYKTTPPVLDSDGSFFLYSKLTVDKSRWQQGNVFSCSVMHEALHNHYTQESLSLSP
light: B1 light
notes: also called Ho Ab E333_14T
B9: GpH7-B3 variant E333_13S/GpL16-k0 (antibody, human IgG1, kappa)
heavy: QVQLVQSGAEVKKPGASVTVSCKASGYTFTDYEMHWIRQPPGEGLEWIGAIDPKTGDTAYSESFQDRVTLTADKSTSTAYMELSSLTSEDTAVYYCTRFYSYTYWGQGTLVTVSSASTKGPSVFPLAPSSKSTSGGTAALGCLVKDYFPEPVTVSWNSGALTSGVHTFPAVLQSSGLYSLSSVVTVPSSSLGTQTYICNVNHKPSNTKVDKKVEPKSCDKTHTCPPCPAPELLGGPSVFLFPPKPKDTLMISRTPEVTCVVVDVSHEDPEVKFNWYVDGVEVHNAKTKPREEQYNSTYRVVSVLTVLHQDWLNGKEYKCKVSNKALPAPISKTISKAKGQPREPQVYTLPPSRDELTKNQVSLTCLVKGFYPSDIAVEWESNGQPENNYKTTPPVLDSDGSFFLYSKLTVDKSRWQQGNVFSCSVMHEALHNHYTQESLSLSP
light: B1 light
notes: also called Ho Ab E333_13S
B10: GpH7-B3 variant E269_15Y/GpL16-k0 (antibody, human IgG1, kappa)
heavy: not shown
light: B1 light
notes: also called Ho Ab E269_15Y
B11: GpH7-B3 variant E269_19Q/GpL16-k0 (antibody, human IgG1, kappa)
heavy: not shown
light: B1 light
notes: also called Ho Ab E269_19Q
B12: GpH7-B3 variant E269_20W/GpL16-k0 (antibody, human IgG1, kappa)
heavy: not shown
light: B1 light
notes: also called Ho Ab E269_20W
B13: GpH7-B3 variant E333_07I/GpL16-k0 (antibody, human IgG1, kappa)
heavy: not shown
light: B1 light
notes: also called Ho Ab E333_07I
B14: GpH7-B3 variant E333_03V/GpL16-k0 (antibody, human IgG1, kappa)
heavy: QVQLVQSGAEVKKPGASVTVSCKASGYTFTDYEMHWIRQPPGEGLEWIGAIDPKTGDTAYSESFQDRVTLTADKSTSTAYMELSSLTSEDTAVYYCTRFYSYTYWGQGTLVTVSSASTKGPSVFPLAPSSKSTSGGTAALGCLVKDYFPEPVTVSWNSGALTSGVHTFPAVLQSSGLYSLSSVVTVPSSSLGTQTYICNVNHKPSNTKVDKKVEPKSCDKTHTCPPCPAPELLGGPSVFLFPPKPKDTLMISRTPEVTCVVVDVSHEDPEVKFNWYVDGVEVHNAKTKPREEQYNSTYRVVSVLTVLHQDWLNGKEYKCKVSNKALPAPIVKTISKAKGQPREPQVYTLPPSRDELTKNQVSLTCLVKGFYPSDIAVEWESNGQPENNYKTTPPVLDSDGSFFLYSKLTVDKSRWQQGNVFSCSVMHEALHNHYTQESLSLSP
light: B1 light
notes: also called Ho Ab E333_03V
B15: GpH7-B3 variant E269_16H/GpL16-k0 (antibody, human IgG1, kappa)
heavy: not shown
light: B1 light
notes: also called Ho Ab E269_16H
B16: GpH7-B3 variant E333_08L/GpL16-k0 (antibody, human IgG1, kappa)
heavy: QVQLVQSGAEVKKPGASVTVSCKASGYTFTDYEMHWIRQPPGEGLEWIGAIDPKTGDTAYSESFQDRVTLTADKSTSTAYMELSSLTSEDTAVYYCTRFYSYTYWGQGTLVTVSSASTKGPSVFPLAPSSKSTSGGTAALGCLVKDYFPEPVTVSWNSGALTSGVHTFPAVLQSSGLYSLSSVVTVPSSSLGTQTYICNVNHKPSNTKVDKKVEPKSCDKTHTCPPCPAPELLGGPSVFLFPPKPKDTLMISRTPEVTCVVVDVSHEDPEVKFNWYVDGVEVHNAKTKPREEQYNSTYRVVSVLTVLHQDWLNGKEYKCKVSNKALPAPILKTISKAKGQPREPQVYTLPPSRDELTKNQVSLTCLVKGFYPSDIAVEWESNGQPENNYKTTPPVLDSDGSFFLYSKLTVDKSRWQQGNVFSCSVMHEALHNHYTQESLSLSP
light: B1 light
notes: also called Ho Ab E333_08L
B17: GpH7-B3 variant E333_12R/GpL16-k0 (antibody, human IgG1, kappa)
heavy: not shown
light: B1 light
notes: also called Ho Ab E333_12R
B18: GpH7-B3 variant E333_01G/GpL16-k0 (antibody, human IgG1, kappa)
heavy: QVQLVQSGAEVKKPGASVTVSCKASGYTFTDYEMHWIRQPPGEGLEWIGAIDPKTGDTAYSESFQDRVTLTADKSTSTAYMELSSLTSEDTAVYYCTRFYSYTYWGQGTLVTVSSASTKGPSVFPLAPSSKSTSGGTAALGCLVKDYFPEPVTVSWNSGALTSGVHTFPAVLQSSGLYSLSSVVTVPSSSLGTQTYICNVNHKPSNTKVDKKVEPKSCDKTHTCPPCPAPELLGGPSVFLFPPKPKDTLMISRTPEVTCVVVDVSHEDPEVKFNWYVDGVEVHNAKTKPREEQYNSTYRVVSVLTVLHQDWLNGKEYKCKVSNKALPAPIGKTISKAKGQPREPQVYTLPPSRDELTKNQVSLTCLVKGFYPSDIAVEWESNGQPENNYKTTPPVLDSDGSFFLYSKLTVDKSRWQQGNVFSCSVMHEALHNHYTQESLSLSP
light: B1 light
notes: also called Ho Ab E333_01G
B19: GpH7-B3 variant E269_18N/GpL16-k0 (antibody, human IgG1, kappa)
heavy: not shown
light: B1 light
notes: also called Ho Ab E269_18N
B20: GpH7-B3 variant E333_15Y/GpL16-k0 (antibody, human IgG1, kappa)
heavy: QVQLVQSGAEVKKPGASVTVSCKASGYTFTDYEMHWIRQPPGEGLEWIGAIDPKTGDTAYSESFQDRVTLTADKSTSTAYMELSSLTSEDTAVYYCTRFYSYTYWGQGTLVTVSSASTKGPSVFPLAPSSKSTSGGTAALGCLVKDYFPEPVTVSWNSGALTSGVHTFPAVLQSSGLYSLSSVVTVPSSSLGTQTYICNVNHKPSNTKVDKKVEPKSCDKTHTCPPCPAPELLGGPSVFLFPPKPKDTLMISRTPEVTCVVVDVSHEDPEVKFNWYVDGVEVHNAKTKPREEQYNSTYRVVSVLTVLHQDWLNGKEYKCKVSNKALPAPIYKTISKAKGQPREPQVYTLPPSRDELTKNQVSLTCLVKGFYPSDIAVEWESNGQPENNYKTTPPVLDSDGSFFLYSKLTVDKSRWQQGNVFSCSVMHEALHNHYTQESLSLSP
light: B1 light
notes: also called Ho Ab E333_15Y
B21: GpH7-B3 variant E333_09D/GpL16-k0 (antibody, human IgG1, kappa)
heavy: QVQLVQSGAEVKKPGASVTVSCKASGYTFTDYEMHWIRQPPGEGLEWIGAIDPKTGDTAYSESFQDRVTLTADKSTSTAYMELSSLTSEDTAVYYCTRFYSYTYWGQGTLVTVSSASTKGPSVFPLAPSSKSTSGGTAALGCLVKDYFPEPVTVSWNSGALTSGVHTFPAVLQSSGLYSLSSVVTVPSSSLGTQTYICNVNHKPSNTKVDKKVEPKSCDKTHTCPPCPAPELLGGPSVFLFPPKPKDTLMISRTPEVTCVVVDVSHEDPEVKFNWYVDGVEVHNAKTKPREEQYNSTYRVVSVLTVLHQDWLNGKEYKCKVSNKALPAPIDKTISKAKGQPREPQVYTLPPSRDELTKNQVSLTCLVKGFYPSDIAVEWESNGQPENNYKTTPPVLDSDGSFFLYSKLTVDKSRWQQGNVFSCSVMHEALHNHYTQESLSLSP
light: B1 light
notes: also called Ho Ab E333_09D

The target of this assay is T1, FcγRIa (human, UniProt P12314 16-292).
T1 construct: extracellular domain; also called FcgRI; 1a
T1 sequence (P12314 16-292): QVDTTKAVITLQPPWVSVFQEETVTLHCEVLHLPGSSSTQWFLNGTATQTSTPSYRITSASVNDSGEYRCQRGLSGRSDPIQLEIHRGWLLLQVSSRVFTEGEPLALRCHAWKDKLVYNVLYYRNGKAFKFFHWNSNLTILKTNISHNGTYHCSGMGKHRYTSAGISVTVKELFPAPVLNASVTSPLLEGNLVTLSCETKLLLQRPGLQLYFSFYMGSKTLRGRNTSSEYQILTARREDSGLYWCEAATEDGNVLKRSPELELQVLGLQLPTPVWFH
Put plainly: SPR (Biacore); Ho Ab relative to HoCon Ab = 100. The procedure:
Analysis of interaction between objective antibody and the FcγR was carried out using Biacore T100 (GE Healthcare). HBS-EP+ (GE Healthcare) was used as the running buffer, and the measurement temperature was set to 25° C. Chips produced by immobilizing the antigen peptide by the amine coupling method to a Series S Sencor Chip CM5 (GE Healthcare), or alternatively, chips produced by allowing preliminarily biotinylated antigen peptides to interact with and immobilize onto a Series S Sensor Chip SA (certified) (GE Healthcare) were used. Antibodies of interest were captured onto an antigen peptide-immobilized chip, and allowed to interact to each FcγR diluted with running buffer. To regenerate and repeatedly use the chip, the antibodies captured on the chip were washed off by reacting 10 mM glycine-HCl, pH 1.5.
Background: Surface plasmon resonance follows binding to a sensor surface in real time, without labels.
For the molecule B1, the Ho/Con_1a is 96.2 % of control.
As to B2, the Ho/Con_1a is 99.2 % of control.
Regarding B3, the Ho/Con_1a was 98.4 % of control.
For B4, the Ho/Con_1a is 99.1 % of control.
On to B5, for which the Ho/Con_1a is 95.8 % of control.
For the molecule B6, the Ho/Con_1a is 96.2 % of control.
Turning to B7, the Ho/Con_1a is 99.5 % of control.
Next, B8: 98.7 % of control; B9: 101 % of control; B10: 100 % of control.
Next, B11: 99.6 % of control; B12: 98.9 % of control; B13: 99.9 % of control.
As for B14, the Ho/Con_1a was 98.4 % of control.
For the molecule B15, the Ho/Con_1a is 98.4 % of control.
The result for B16 reads 99 % of control; that for B17, 94.2 % of control.
Next, B18: 100 % of control.
As for B19, the Ho/Con_1a is 92.7 % of control.
The result for B20 reads 100 % of control; that for B21, 103 % of control.

The values are drawn from patent US20150344570A1 (published 2015).
